B1: RNA-binding protein 7 (Homo sapiens), Q9Y580 (parent)
chain: MGAAAAEADRTLFVGNLETKVTEELLFELFHQAGPVIKVKIPKDKDGKPKQFAFVNFKHEVSVPYAMNLLNGIKLYGRPIKIQFRSGSSHAPQDVSLSYPQHHVGNSSPTSTSPSRYERTMDNMTSSAQIIQRSFSSPENFQRQAVMNSALRQMSYGGKFGSSPLDQSGFSPSVQSHSHSFNQSSSSQWRQGTPSSQRKVRMNSYPYLADRHYSREQRYTDHGSDHHYRGKRDDFFYEDRNHDDWSHDYDNRRDSSRDGKWRSSRH
partner: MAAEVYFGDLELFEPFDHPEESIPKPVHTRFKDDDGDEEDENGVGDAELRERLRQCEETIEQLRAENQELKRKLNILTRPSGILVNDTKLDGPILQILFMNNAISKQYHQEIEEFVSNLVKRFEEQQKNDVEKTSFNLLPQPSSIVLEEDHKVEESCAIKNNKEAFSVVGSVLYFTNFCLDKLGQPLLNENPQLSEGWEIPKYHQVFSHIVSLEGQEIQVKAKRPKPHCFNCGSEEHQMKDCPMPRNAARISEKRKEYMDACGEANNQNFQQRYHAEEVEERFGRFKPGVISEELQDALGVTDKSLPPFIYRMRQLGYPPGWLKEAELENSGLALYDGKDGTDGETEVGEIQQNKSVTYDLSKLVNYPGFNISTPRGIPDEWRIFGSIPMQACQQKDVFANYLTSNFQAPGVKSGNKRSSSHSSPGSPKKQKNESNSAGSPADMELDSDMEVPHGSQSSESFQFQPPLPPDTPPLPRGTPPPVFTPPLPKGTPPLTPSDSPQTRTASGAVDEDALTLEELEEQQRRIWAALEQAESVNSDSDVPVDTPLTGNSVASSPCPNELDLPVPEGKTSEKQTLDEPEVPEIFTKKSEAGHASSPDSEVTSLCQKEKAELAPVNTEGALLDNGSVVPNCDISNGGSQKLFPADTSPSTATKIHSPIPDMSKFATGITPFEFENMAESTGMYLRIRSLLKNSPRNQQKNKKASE
B2: Zinc finger CCHC domain-containing protein 8 (Homo sapiens), Q6NZY4 (parent)
chain: B1 partner
partner: B1 chain

Variants of: B1
Conditions: with zchc8_human ZCCHC8, Q6NZY4

Variant	effect of a mutation on the interaction
L25E;L29E	decreasing interaction strength
Y65A;L69E	decreasing interaction strength

Variants of: B2
Conditions: with rbm7_human RBM7, Q9Y580

Variant	effect of a mutation on the interaction
F309A;M313E	disrupting interaction strength
L295E;L299E	disrupting interaction strength
